Experimental findings from US7063946B2, “Methods, reagents, kits and apparatus for protein function analysis” (Meso Scale Technologies, LLC., priority 2001, dated 2006) are described below.

The assay has as its system phospho-pEY. Kind of assay: Protein tyrosine phosphatase activity assay with phospho-pEY substrate. The class given is biochemical. The conditions noted are these: 5 nM phospho-pEY, 45 min. How it is done:
Several proteins were produced in an in vitro transcription and translation reaction using 1–150 ng of plasmid DNA including: Mock Luciferase (Promega); protein tyrosine phosphatase; non-receptor type 2 (PTP-N2, IMAGE ID# 3872164, Incyte Genomics, CA); and fer (fms/fps related) protein kinase, testis specific 2 clone (Fert2, IMAGE ID# 4485050, Incyte Genomics, CA). The proteins were produced and immobilized on SA coated NPT-IPR plates, as described in Example 7. […]
A tyrosine phosphate substrate was prepared by enzymatically phosphorylating poly(Glu, Tyr). […] The phosphorylation in the product was determined by transferring serially diluted reaction mixture to a streptavidin-coated NPT IPR plate and assaying for phosphorylated-poly(Glu, Tyr) as described in previous examples (see, e.g., Example 7).
The phosphorylated poly(Glu, Tyr) was used as a substrate to measure the phosphatase activity of the purified and immobilized PTP-N2. […] Following this incubation 45 μl of this mixture was transferred to a streptavidin-coated NPT IPR plate and the solution analyzed for phospho-poly(Glu, Tyr) content as described above.

B1: PTP-N2: protein tyrosine phosphatase, non-receptor type 2, IMAGE ID# 3872164 (protein, UniProt P17706 1-415, looked up)
Tyrosine-protein phosphatase …: MPTTIEREFEELDTQRRWQPLYLEIRNESHDYPHRVAKFPENRNRNRYRDVSPYDHSRVKLQNAENDYINASLVDIEEAQRSYILTQGPLPNTCCHFWLMVWQQKTKAVVMLNRIVEKESVKCAQYWPTDDQEMLFKETGFSVKLLSEDVKSYYTVHLLQLENINSGETRTISHFHYTTWPDFGVPESPASFLNFLFKVRESGSLNPDHGPAVIHCSAGIGRSGTFSLVDTCLVLMEKGDDINIKQVLLNMRKYRMGLIQTPDQLRFSYMAIIEGAKCIKGDSSIQKRWKELSKEDLSPAFDHSPNKIMTEKYNGNRIGLEEEKLTGDRCTGLSSKMQDTMEENSESALRKRIREDRKATTAQKVQQMKQRLNENERKRKRWLYWQPILTKMGFMSVILVGAFVGWTLFFQQNAL
In the case of B1, the ECL signal was 70,574.
